Measured values reported in patent US20260185093.

Tested on: T1, SpuFz1 (FZID16) (Spizellomyces punctatus)
T1 sequence: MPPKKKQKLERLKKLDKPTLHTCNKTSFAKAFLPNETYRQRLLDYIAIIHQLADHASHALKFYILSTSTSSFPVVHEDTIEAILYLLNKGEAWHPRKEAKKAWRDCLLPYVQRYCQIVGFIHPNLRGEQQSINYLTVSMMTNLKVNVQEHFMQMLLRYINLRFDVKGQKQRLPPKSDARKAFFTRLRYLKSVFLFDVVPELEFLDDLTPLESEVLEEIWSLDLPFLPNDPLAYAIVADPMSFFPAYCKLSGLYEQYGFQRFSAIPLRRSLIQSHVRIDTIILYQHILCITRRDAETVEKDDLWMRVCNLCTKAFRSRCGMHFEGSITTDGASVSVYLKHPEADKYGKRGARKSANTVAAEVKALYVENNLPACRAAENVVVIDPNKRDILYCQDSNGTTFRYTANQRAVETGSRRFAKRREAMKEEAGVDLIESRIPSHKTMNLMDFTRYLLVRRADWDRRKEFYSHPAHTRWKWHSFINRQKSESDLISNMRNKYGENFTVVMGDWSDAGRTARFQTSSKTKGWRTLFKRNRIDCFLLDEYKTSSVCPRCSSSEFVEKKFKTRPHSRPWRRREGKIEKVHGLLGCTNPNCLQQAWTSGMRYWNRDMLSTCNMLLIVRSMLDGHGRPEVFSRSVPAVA
Assay: cell_activity
Details: HEK293FT, TAM CATA

Row | Sequence | activity (gID7, longest initial scaffold) | activity (gID7, minimal omegaRNA)
1 | GUCCACGGACUGCUGGGUUGUACCAACCCUAACUGUUUGCAGCAAGCCUGGACAUCGGGAAUGCGCUACUGGAAUCGAGAUAUGCUGUCAACCUGCAACAUGCUAUUGAUUGUGAGAUCAAUGUUGGAUGGACACGGUAGACCAGAAGUGUUCAGCAGGAGUGUUCCAGCCGUAGCGUAGAACGUAGAUUGGUUAGAUUAGGUUUUCCGAGCCGGUUGUCGCGCGGUUCAAUCCCUGGUGCGGGUGCUAGUGCCAAUACCCACCGGCUCCGCACUAGCAUUCCUUAACACAUCACU / GCATTCCTTAACACATCACT / AGTGATGTGTTAAGGAATGC | 0.78 % indel | –
2 | GUUUUCCGAGCCGGUUGUCGCGCGGUUCAAUCCCUGGUGCGGGUGCUAGUGCCAAUACCCACCGGCUCCGCACUAGCAUUCCUUAACACAUCACU / GCATTCCTTAACACATCACT / AGTGATGTGTTAAGGAATGC | – | 0.17 % indel
